Test results as given in patent publication US20240317884A1, “METHOD FOR ALLOWING IMMUNE CELLS INFILTRATION IN TUMORS” (Alethia Biotherapeutics Inc., priority 2021, published 2024).
“And” between values parts separate entries of the source, which are not always exact repeats. Identical values can stand only once. “Also recorded” adds a separate entry of the source.

Columns and labels:
[1] = Non-clinical pharmacokinetics, single and repeat-dose, rats; assay type: in vivo; settings: Sprague-Dawley rats; infusion
Text: (§1) There was an approximate 70% increase in systemic exposure following repeated dosing from Day 1 to Day 26 which is consistent with the elimination half-life of AB-16B5 and the dosing intervals. […] The sCLU concentrations were generally back to their baseline levels after 3 to 5 days. The concurrent decrease in sCLU concentrations immediately following dosing with AB-16B5 is consistent with an antigen-sink phenomenon.

[2] = Non-clinical pharmacokinetics, single and repeat-dose, monkeys; assay type: in vivo; settings: Rhesus monkeys
Text: as §1

sCLU = target: T1, sCLU (Macaca mulatta, UniProt F6S885); experiment: sCLU serum concentrations after single dose of AB-16B5; assay type: in vivo; settings: Rhesus monkeys
T1 construct: from tissue; host or cells: serum of Rhesus monkeys dosed with AB-16B5
Text: as §1

[3] = Non-clinical toxicity, weekly administration, rats; assay type: in vivo, Sprague-Dawley rats
Text: This finding most likely reflects a slight antigenic stimulation by AB-16B5 in these 2 regional lymph nodes.

[4] = Non-clinical toxicity, weekly administration, monkeys; assay type: in vivo, Rhesus monkeys
Text: Consequently, they were not considered to be toxicologically significant.

[5] = system: frozen tissues from human, Rhesus monkey, and Sprague-Dawley rat; experiment: Tissue cross-reactivity study; assay type: binding; settings: AB-16B5 staining at 2 and 10 μg/mL
Method: In addition, a tissue cross-reactivity study was conducted to determine the potential cross-reactivity of AB-16B5 with frozen tissues from human, Rhesus monkey, and Sprague-Dawley rat tissues.

[6] = system: advanced solid malignancy; experiment: Phase I study AB-16B5-101: tumor response (RECIST); assay type: in vivo, human
[7] = Phase I study AB-16B5-101: safety profile; assay type: in vivo, human
E-cadherin, vimentin = experiment: Phase I: immunohistochemistry on paired tumor biopsies (epithelial phenotype); assay type: in vivo, human
Method: (§2) Immunohistochemistry studies were conducted on paired tumor biopsies to determine if the treatment with AB-16B5 was associated with a reacquisition of an epithelial phenotype.

tumor biopsies = experiment: Phase I: necrosis in tumor biopsies; assay type: in vivo, human; settings: for Necrosis Pre-Treatment: baseline
Method: Tumor biopsies were collected during the standard dose escalation to investigate the presence of AB-16B5 within the tumor. A total of 4 pre-treatment and 5 post-treatment tumor biopsies were suitable for analysis. These post-treatment tumor biopsies were collected following dosing on Cycle 2 Day 15 (between Cycle 2 Day 15 and Cycle 2 Day 18). The biopsy sites were liver (n=2), lymph node (n=2), bladder, skin and vulva.
as §2

[8] = Phase I: plasma pharmacokinetics (non-compartmental analysis); assay type: in vivo, human; settings: for AUC0-t / Cmax / Thalf: mean; for AUC0-t / Cmax / Thalf / Tmax: plasma, first dose of cycle; for Tmax: median
Text: Plasma PK parameters for AB-16B5 were derived from the concentration-time profiles following the first dose of Cycle 1 and the first dose of Cycle 2 using a non-compartmental analysis (NCA) with Phoenix WinNonlin.

[9] = system: CA 15-3, CA-125, CA 19-9, CEA, LDH and PSA; experiment: Phase I: circulating tumor biomarkers; assay type: in vivo, human
Method: Several well-established circulating biomarkers were evaluated to monitor the response to therapy. They included CA 15-3, CA-125, CA 19-9, CEA, LDH and PSA.

[10] = RECIST-evaluable population (14 subjects), 1.5-12.0 mg/kg
[11] = Subject 001, Pancreatic, 1.5 mg/kg weekly IV, 2 cycles
[12] = Subject 003, Soft Tissue Sarcoma, 6.0 mg/kg weekly IV, 2 cycles
[13] = Subject 005, Prostate, 6.0 mg/kg weekly IV, 2 cycles
[14] = Subject 010, Colorectal, 12.0 mg/kg weekly IV, 4 cycles
[15] = Subject 012, Breast, 12.0 mg/kg weekly IV, 2 cycles
[16] = Subject 013, Prostate, 12.0 mg/kg weekly IV, 2 cycles
[17] = Subject 014, Vulvar Melanoma, 12.0 mg/kg weekly IV, 2 cycles
[18] = Subject 006, Breast, biopsy site Skin, 9.0 mg/kg
[19] = Subject 007, Gastric, biopsy site Gastric, 9.0 mg/kg
[20] = Subject 012, Breast, biopsy site Skin, 12.0 mg/kg
[21] = Subject 013, Prostate, biopsy site Bladder, 12.0 mg/kg

T1 sequence (F6S885 22-448): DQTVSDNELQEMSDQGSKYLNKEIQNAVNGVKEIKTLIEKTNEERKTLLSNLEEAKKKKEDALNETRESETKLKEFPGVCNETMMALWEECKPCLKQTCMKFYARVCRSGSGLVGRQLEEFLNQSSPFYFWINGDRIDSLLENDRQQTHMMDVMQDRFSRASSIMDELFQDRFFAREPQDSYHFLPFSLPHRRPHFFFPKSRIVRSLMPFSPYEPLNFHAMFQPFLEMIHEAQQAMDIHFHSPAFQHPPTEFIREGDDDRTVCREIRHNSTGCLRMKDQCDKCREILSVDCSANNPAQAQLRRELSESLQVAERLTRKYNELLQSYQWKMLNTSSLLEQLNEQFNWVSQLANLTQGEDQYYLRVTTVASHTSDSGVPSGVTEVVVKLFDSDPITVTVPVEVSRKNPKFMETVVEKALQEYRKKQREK

AB-16B5: humanized IgG2 monoclonal antibody targeting sCLU; light chain SEQ ID NO:11, heavy chain SEQ ID NO:12
systemic exposure over 24 hours with increasing dose levels [1]: dose proportional manner
systemic exposure with increasing dose levels [2]: generally greater than dose proportional
drug accumulation in terms of Cmax ([2]; repeated dosing once or twice weekly): no evidence of drug accumulation
sCLU serum concentrations following dosing (sCLU): decreased significantly
No Observable Adverse Effect Level (NOAEL) ([3]; Sprague-Dawley rats, weekly administration): 100 mg/kg/dose
incidence of minimal lymphoid hypercellularity, mandibular lymph node ([3]; rat, in vivo): 1/20
incidence of minimal lymphoid hypercellularity, mesenteric lymph node ([3]; rat, in vivo): 2/20
treatment-related clinical signs and changes (body weight, food consumption, ophthalmology, clinical pathology, organ weights) ([3]; rat, in vivo): did not result in any treatment-related clinical signs
No Observable Adverse Effect Level (NOAEL) ([4]; Rhesus monkeys, weekly administration): 100 mg/kg/dose
signs of overt toxicity ([4]; rhesus monkey, in vivo): did not result in any signs of overt toxicity
hepatocellular vacuolation in the liver ([4]; rhesus monkey, in vivo, 100 mg/kg): 2 animals
membrane staining in tissue panels [5]: no membrane staining was observed
best overall response progressive disease (PD), number of subjects [6, 10]: 6 subjects
best overall response progressive disease (PD), share of subjects [6, 10]: 43%
best overall response stable disease (SD), number of subjects [6, 10]: 8 subjects
best overall response stable disease (SD), share of subjects [6, 10]: 57%
Best Overall Response [6, 11]: PD (progressive disease (PD))
Tumor Response at Last Assessment Non-Target Lesions [6, 11]: PD (New (progressive disease (PD))
Tumor Response at Last Assessment Target Lesions [6, 11]: PD (progressive disease (PD))
Tumor Response at Last Assessment Target Lesions ([6]; Subject 002, Endometrium, 3.0 mg/kg weekly IV, 4 cycles): PD (progressive disease (PD))
Best Overall Response [6, 12]: PD (progressive disease (PD))
Tumor Response at Last Assessment Non-Target Lesions [6, 12]: PD (New (progressive disease (PD))
Best Overall Response [6, 13]: PD (progressive disease (PD))
Tumor Response at Last Assessment Target Lesions [6, 13]: PD (progressive disease (PD))
Tumor Response at Last Assessment Non-Target Lesions ([6]; Subject 007, Gastric, 9.0 mg/kg weekly IV, 8 cycles): PD (New (progressive disease (PD))
Tumor Response at Last Assessment Non-Target Lesions ([6]; Subject 008, Thyroid, 9.0 mg/kg weekly IV, 4 cycles): PD (New (progressive disease (PD))
Tumor Response at Last Assessment Non-Target Lesions ([6]; Subject 009, Lung, 12.0 mg/kg weekly IV, 6 cycles): PD (New (progressive disease (PD))
Tumor Response at Last Assessment Non-Target Lesions [6, 14]: PD (New (progressive disease (PD))
Tumor Response at Last Assessment Target Lesions [6, 14]: PD (progressive disease (PD))
Best Overall Response [6, 15]: PD (progressive disease (PD))
Tumor Response at Last Assessment Non-Target Lesions [6, 15]: PD (progressive disease (PD))
Best Overall Response [6, 16]: PD (progressive disease (PD))
Tumor Response at Last Assessment Non-Target Lesions [6, 16]: PD (New (progressive disease (PD))
Best Overall Response [6, 17]: PD (progressive disease (PD))
Tumor Response at Last Assessment Non-Target Lesions [6, 17]: PD (New (progressive disease (PD))
Tumor Response at Last Assessment Non-Target Lesions ([6]; Subject 015, Ovarian Cancer, 12.0 mg/kg weekly IV, 4 cycles): PD (New (progressive disease (PD))
time on treatment with stable disease (SD) and clinical benefit ([6]; patient with advanced gastric cancer): 24 weeks
subjects reporting SAEs ([7]; 5 of 15 subjects, all SAEs considered unrelated to AB-16B5): 33%
AEs reported, total ([7]; 15 subjects, all causalities): 167
dose at which weekly infusion was safe and well tolerated ([7]; 60-minute IV weekly infusion): up to 12 mg/kg
dose-limiting toxicity ([7]; 60-minute IV weekly infusion, 1.5 to 12.0 mg/kg, 15 subjects): No dose-limiting toxicity; also recorded: No dose-limiting toxicities
deaths reported in the study ([7]; Subjects 004 and 014, associated with progression of the disease): Two
number of SAEs ([7]; all considered unrelated to AB-16B5): 6 and 5
AEs of Grade 3 to 5 ([7]; reported by 8 subjects): 12
subjects who discontinued the study due to an adverse event ([7]; two subjects (004, 011)): 13%
E-cadherin Expression in Post-Treatment (E-cadherin, vimentin; [18]): Increase
E-cadherin Expression in Post-Treatment (E-cadherin, vimentin; [19]): Increase
vimentin expression after treatment (E-cadherin, vimentin; Subject 007, advanced gastric cancer, paired tumor biopsies): loss of vimentin expression
E-cadherin Expression in Post-Treatment (E-cadherin, vimentin; [20]): Decrease
E-cadherin Expression in Post-Treatment (E-cadherin, vimentin; [21]): did not change; also recorded: No change
Necrosis Post-Treatment (tumor biopsies; [18]): 10%
Necrosis Pre-Treatment (tumor biopsies; Subject 006, Breast, biopsy site Skin): 0%
Necrosis Post-Treatment (tumor biopsies; [19]): 0%
Necrosis Pre-Treatment (tumor biopsies; Subject 007, Gastric, biopsy site Gastric): 0%
Necrosis Post-Treatment (tumor biopsies; [20]): 5%
Necrosis Pre-Treatment (tumor biopsies; Subject 012, Breast, biopsy site Skin): 0%
Necrosis Post-Treatment (tumor biopsies; [21]): 10%
Necrosis Pre-Treatment (tumor biopsies; Subject 013, Prostate, biopsy site Bladder): 0%
AUC0-t ([8]; Cycle 1, 1.5 mg/kg (N = 1)): 230,321 ng*h/mL
Cmax ([8]; Cycle 1, 1.5 mg/kg (N = 1)): 17,958 ng/mL
Thalf ([8]; Cycle 1, 1.5 mg/kg (N = 1)): 9.35 h
Tmax ([8]; Cycle 1, 1.5 mg/kg (N = 1)): 1.17 h
AUC0-t ([8]; Cycle 1, 3.0 mg/kg (N = 1)): 645,602 ng*h/mL
Cmax ([8]; Cycle 1, 3.0 mg/kg (N = 1)): 50,736 ng/mL
Thalf ([8]; Cycle 1, 3.0 mg/kg (N = 1)): 7.39 h
Tmax ([8]; Cycle 1, 3.0 mg/kg (N = 1)): 1.08 h
AUC0-t ([8]; Cycle 1, 6.0 mg/kg (N = 3)): 1,357,773 ng*h/mL
Cmax ([8]; Cycle 1, 6.0 mg/kg (N = 3)): 117,663 ng/mL
Thalf ([8]; Cycle 1, 6.0 mg/kg (N = 3)): 6.99 h
Tmax ([8]; Cycle 1, 6.0 mg/kg (N = 3)): 1.00 h
AUC0-t ([8]; Cycle 1, 9.0 mg/kg (N = 3)): 2,083,091 ng*h/mL
Cmax ([8]; Cycle 1, 9.0 mg/kg (N = 3)): 162,103 ng/mL
Thalf ([8]; Cycle 1, 9.0 mg/kg (N = 3)): 10.78 h
Tmax ([8]; Cycle 1, 9.0 mg/kg (N = 3)): 2.00 h
AUC0-t ([8]; Cycle 1, 12.0 mg/kg (N = 7)): 4,045,786 ng*h/mL
Cmax ([8]; Cycle 1, 12.0 mg/kg (N = 7)): 256,977 ng/mL
Thalf ([8]; Cycle 1, 12.0 mg/kg (N = 7)): 11.99 h
Tmax ([8]; Cycle 1, 12.0 mg/kg (N = 7)): 1.12 h
AUC0-t ([8]; Cycle 2, 1.5 mg/kg (N = 1)): 188,584 ng*h/mL
Cmax ([8]; Cycle 2, 1.5 mg/kg (N = 1)): 15,662 ng/mL
Thalf ([8]; Cycle 2, 1.5 mg/kg (N = 1)): 7.97 h
Tmax ([8]; Cycle 2, 1.5 mg/kg (N = 1)): 1.00 h
AUC0-t ([8]; Cycle 2, 3.0 mg/kg (N = 1)): 688,934 ng*h/mL
Cmax ([8]; Cycle 2, 3.0 mg/kg (N = 1)): 61,466 ng/mL
Thalf ([8]; Cycle 2, 3.0 mg/kg (N = 1)): 6.82 h
Tmax ([8]; Cycle 2, 3.0 mg/kg (N = 1)): 1.05 h
AUC0-t ([8]; Cycle 2, 6.0 mg/kg (N = 3)): 1,351,156 ng*h/mL
Cmax ([8]; Cycle 2, 6.0 mg/kg (N = 3)): 120,466 ng/mL
Thalf ([8]; Cycle 2, 6.0 mg/kg (N = 3)): 7.70 h
Tmax ([8]; Cycle 2, 6.0 mg/kg (N = 3)): 1.03 h
AUC0-t ([8]; Cycle 2, 9.0 mg/kg (N = 3)): 2,459,988 ng*h/mL
Cmax ([8]; Cycle 2, 9.0 mg/kg (N = 3)): 163,840 ng/mL
Thalf ([8]; Cycle 2, 9.0 mg/kg (N = 3)): 13.75 h
Tmax ([8]; Cycle 2, 9.0 mg/kg (N = 3)): 1.08 h
AUC0-t ([8]; Cycle 2, 12.0 mg/kg (N = 7)): 4,147,243 ng*h/mL
Cmax ([8]; Cycle 2, 12.0 mg/kg (N = 7)): 230,268 ng/mL
Thalf ([8]; Cycle 2, 12.0 mg/kg (N = 7)): 21.04 h
Tmax ([8]; Cycle 2, 12.0 mg/kg (N = 7)): 1.04 h
increase of mean Cmax and AUC0-t (systemic exposure) with the dose ([8]; dose range of 3.0 to 12.0 mg/kg, Cycle 1 and Cycle 2): dose proportional
accumulation of AB-16B5 between Cycle 1 and Cycle 2 ([8]; weekly IV infusion): No significant accumulation
tumor biomarker levels over time ([9]; CA 15-3, CA-125, CA 19-9, CEA, LDH and PSA, correlated with disease progression): increased over time
level of CEA ([9]; in few patients): remained stable or decreased
